Experimental data reported in patent publication US20230128075A1 (University of Texas, published 2023).

Tests used:
[1] = molecular target: T1, ADP-HSP70 (ADP-enriched HSP70) (Homo sapiens (Human), UniProt P0DMV8 1-641); assay: BLI, 77A on sensor
T1 construct: also called ADP-HSP70 complexes
Experimental: HSP70 was expressed in SF9 cells. Affinity chromatography using resins selective for ADP or ATP-binding proteins were used to enrich bulk preparations of the correspondingly bound HSP70 recombinant protein. Protein concentrations, determined after elution, were measured so that equal concentrations could be used in subsequent assays. For BLI-based assays, antibodies and reagents were diluted out onto microwell plates and loaded into the instrument. Antibodies being tested were immobilized onto dip-and-read sensors and then observed for kinetics during binding to ATP or ADP-enriched HSP70. For ELISA, the relevant enriched HSP70 proteins were directly coated onto ELISA plate wells overnight. Test antibodies were then serially diluted across the plate wells, and detected using an appropriate secondary antibody-HRP conjugate. The plates were developed using a TMB substrate, and the O.D. stabilized using an acid stop solution.

[2] = molecular target: T2, 614; assay: immunoprecipitation from cell lysate (CL) with 77A, Western blot GFP [panel C]
T2 construct: lane label in panel C
T2 sequence (chain, as listed by the source limits assumed): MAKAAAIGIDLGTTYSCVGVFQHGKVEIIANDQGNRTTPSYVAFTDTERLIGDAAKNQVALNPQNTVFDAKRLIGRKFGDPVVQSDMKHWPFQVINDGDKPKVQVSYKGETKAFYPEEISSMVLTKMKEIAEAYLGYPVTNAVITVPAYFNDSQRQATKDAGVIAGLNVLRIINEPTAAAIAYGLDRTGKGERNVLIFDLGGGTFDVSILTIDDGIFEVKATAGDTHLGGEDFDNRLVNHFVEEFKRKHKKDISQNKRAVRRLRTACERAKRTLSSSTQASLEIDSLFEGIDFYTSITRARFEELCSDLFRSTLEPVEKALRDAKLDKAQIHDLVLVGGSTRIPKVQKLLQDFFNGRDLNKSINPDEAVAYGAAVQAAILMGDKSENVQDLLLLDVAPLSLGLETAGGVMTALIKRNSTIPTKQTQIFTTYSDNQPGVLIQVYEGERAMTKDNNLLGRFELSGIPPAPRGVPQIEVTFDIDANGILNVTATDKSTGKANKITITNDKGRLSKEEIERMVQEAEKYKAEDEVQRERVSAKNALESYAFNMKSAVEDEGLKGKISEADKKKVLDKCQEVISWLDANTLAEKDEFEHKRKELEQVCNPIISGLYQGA
Experimental: (§1) IP of cell extracts with 77A was followed by detection of proteins by Western blotting (WB) with an anti-GFP antibody (B). Smaller deletions were then generated for finer mapping (C), and the indicated IPs were performed from cell lysates (CL) or culture media supernatants (CM). Loading was confirmed with an a-light chain (LC) antibody. The putative binding domain for 77A is indicated on a molecular model of HSP70 representing the relevant region of the protein (D). The exact amino acids that comprise the 77A epitope were determined using alanine scanning analysis, and the results are shown in (E), and the ribbon diagram showing the primary and secondary critical sites is shown in (F).
(§2) Alanine scanning analysis was performed to identify key amino acids in HSP70 with which 77A interacts (FIG. 3E).

[3] = molecular target: T3, 534; assay: immunoprecipitation of cell extracts with 77A, Western blot with anti-GFP [panel B]
T3 construct: lane label in panels A and B
T3 sequence (chain, as listed by the source limits assumed): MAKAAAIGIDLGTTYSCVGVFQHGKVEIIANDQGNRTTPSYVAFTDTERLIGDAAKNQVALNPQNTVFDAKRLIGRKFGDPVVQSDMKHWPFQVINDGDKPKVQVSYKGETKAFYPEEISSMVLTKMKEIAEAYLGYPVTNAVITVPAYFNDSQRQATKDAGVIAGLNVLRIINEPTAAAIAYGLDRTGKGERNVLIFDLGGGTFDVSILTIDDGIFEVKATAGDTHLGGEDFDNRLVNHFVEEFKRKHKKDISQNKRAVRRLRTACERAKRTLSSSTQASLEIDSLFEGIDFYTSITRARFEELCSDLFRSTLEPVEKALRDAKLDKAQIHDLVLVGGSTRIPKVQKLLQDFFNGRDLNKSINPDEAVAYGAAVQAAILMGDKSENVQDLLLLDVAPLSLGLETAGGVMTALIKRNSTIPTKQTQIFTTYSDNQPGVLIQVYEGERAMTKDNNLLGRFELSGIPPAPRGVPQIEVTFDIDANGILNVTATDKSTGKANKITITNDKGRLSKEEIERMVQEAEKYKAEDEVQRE
Experimental: as §1, §2

T1 sequence (P0DMV8 whole entry): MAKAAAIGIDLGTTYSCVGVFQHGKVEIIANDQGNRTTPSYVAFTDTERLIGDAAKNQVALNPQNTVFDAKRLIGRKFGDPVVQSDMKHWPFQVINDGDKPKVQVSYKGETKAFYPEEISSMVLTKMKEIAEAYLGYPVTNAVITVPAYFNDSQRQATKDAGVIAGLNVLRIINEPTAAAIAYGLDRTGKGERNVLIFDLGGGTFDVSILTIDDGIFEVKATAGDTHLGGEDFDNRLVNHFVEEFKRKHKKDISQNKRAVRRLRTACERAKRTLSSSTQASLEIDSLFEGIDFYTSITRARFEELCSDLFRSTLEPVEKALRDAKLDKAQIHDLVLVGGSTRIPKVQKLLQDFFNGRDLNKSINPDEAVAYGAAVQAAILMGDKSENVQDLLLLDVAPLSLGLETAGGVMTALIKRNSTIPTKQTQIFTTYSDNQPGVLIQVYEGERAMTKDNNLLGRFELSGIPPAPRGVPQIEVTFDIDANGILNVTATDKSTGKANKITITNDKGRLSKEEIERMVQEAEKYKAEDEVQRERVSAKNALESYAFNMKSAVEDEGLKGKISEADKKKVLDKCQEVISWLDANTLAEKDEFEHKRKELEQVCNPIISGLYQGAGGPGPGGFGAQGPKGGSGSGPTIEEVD

B1: 77A antibody (clone 77A, murine anti-HSP70 mAb) (antibody, V domains shown)
VH: QIQLVQSGPELKKPGETVKISCKASGYTFTNYGMNWVKQAPGKGLKWMGWINTYTGEPTYADDFKGRFAFSLETSATTAYLQINNLKNEDTATYFCARYDHAMDYWGQGTSVTVSS
VL: DIVMSQSPSSLAVSAGEKVTMSCKSSQSLLNSGTRKNYLAWYQQKPGQSPKLLIYWTSTRESGVPDRFTGSGSGTDFTLTINSVQAEDLAVYYCKQSYTLYTFGGGTKLEIK
notes: Murine hybridoma mAb; its isotype control is IgG2B; also called mAb 77A
- fold greater affinity (KD) than for ATP-enriched HSP70 [1]: ≥ 4 fold
- binding result [2]: binds
- binding result [3]: binds
